Experimental data: patent publication US20130097717A1, “COMPOSITIONS AND METHODS FOR RE-PROGRAMMING CELLS WITHOUT GENETIC MODIFICATION FOR TREATMENT OF CARDIOVASCULAR DISEASES” (VIVOSCRIPT, INC., priority 2010, published 2013)

Tests used:
PBMC/mono- (T cells) = test: Reprogramming of T cells to Treg cells, flow cytometry of CD4 and CD25 in PBMC lacking CD14 monocytes; type: cell-based, human; details: 10, 20 or 50 μg/ml
Procedure: 100 ml of healthy human blood was collected from a donor and the peripheral blood mononuclear cells (PBMCs) were isolated by density-gradient centrifugation using Histopaque-1077 (Sigma-Aldrich, St Louis, Mo.). CD14+ monocytes were removed by magnetic bead selection (Miltenyi Biotec, Auburn, Calif.). Briefly, […] PBMCs were incubated with 200 μL anti-CD14 microbeads (Miltenyi Biotec) in ice for 30 minutes. The cells were washed with cold 1×PBS with 2% FCS and centrifuged at 300 g for 10 minutes and then resuspended in 1×PBS with 2% FCS. The cell suspension was applied to the magnetic column and unbinding cells were passed through by washing 3 times with 1×PBS with 2% FCS. The PBMC/mono- were harvested by centrifuged at 300 g for 10 minutes.
The PBMC/mono- were cultured in 6-well plates (Becton Dickinson, Gaithersburg, Md.) supplemented with 10% FBS, nonessential amino acids, 2 mM glutamine, 1 mM sodium pyruvate, 25 mM HEPES, 200 units/ml penicillin, and streptomycin at 37° C. and 5% CO2. After 1 hour of culture, His6-Foxp3-11R (10 μg/ml, 20 μg/ml, or 50 μg/ml) was added to the cells. BSA (100 μg/ml) was added to another well as control. Same concentration of His6-Foxp3-11R or BSA was added after cultured for two days. After 5 days of culture, the cells were washed with PBS twice. The cells were re-suspended in 100 μL diluted and added rabbit anti-human CD25 for 90 minutes. […]

PBMC (T cells) = test: Reprogramming of T cells to Treg cells, flow cytometry of CD4 and CD25 in PBMC; type: cell-based, human; details: 10, 50 or 100 μg/ml
Procedure: 100 ml of healthy human blood was collected from a donor and the peripheral blood mononuclear cells (PBMCs) were isolated by density-gradient centrifugation using Histopaque-1077 (Sigma-Aldrich, St Louis, Mo.). The PBMC/mono^− were cultured in […] plates (Becton Dickinson, Gaithersburg, Md.) supplemented with 10% FBS, nonessential amino acids, 2 mM glutamine, 1 mM sodium pyruvate, 25 mM HEPES, 200 units/ml penicillin, and streptomycin at 37° C. and 5% CO2. After 1 hour of culture, Foxp3 (10 μg/ml, 50 μg/ml, 100 μg/ml) were added to the cells. BSA (100 μg/ml) was added to another well as control. Same concentration of the Foxp3 or BSA was added after cultured two days. Following 5 days of culture, the cells were washed with PBS twice. The cells were re-suspended in 100 μL diluted and added rabbit anti-human CD25 for 90 minutes. The cells were washed three time with cold 1×PBS supplied 2% FBS and then the conjugated-PE mouse anti-human CD4 as well as conjugated-FITC goat anti-rabbit IgG were added to the cells for 60 minutes in ice. Conjugated-PE mouse IgG and rabbit IgG were incubated with another group cells as Isotype control. The cells were washed with PBS for flow cytometric analysis using a Beckman Coulter FC500 cytometer with Cytomics CXP software (Beckman Coulter, Fullerton, Calif.) (FIGS. 14-17).

[1] = added again after two days, 5 days of culture

B1: His6-Foxp3-11R: His6-tagged Foxp3 fused to 11R, SEQ ID NO: 33 (protein)
chain: MGSSHHHHHHSSGLVPRGSHMPNPRPGKPSAPSLALGPSPGASPSWRAAPKASDLLGARGPGGTFQGRDLRGGAHASSSSLNPMPPSQLQLPTLPLVMVAPSGARLGPLPHLQALLQDRPHFMHQLSTVDAHARTPVLQVHPLESPAMISLTPPTTATGVFSLKARPGLPPGINVASLEWVSREPALLCTFPNPSAPRKDSTLSAVPQSSYPLLANGVCKWPGCEKVFEEPEDFLKHCQADHLLDEKGRAQCLLQREMVQSLEQQLVLEKEKLSAMQAHLAGKMALTKASSVASSDKGSCCIVAAGSQGPVVPAWSGPREAPDSLFAVRRHLWGSHGNSTFPEFLHNMDYFKFHNMRPPFTYATLIRWAILEAPEKQRTLNEIYHWFTRMFAFFRNHPATWKNAIRHNLSLHKCFVRVESEKGAVWTVDELEFRKKRSQRPSRCSNPTPGPESGGGGSPGRRRRRRRRRRR
modifications: transducible material
PBMC/mono- (T cells)
  dose dependence of the increase of CD4+CD25+T cells: protein-dose dependent
PBMC/mono- (T cells); [1]
  CD4+CD25+T cells (Treg cells): dramatically increased
PBMC (T cells)
  dose dependence of the increase of CD4+CD25+T cells: protein-dose dependent
PBMC (T cells); [1]
  CD4+CD25+T cells (Treg cells): dramatically increased
